According to the supplement of paper PMC9732359:
± gives the uncertainty stated by the source.

Assay: protein stability index of a GFP-peptide fusion (yeast GPS) (PSI 1-4); higher = more stable; sorted into four equal gates, so the index is relative within each strain
Conditions: san1∆
Method in brief: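 Plasmids isolated from each sorting gate were PCR-amplified and Illumina-sequenced, and barcodes assigned the reads to strains. The gates, four of equal size, were set by GFP/Cherry fluorescence ratio on mid-log cultures in leucine-free medium. These cultures were yeast carrying a pooled library of tiled 17-residue yeast protein peptides fused downstream of GFP on a plasmid that also expresses Cherry. The protein stability index is the sum of every gate's read frequency times its gate number.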

**Q.** For SVEWMKVSPSMCGVIVK [SIN4], which protein stability index is on record?
**A.** 1.69 ± 0.091

Same assay, conditions: ubr1∆

**Q.** For SNGGGKVKPIRGFCQRL [RPO31], which protein stability index is on record?
**A.** 3.25 ± 0.065

**Q.** For SNGNNLPLNKPRLEKLI [RGR1], which protein stability index is on record?
**A.** 3.16 ± 0.063

**Q.** For SNIITKSLVQYIELLPN [DIS3], which protein stability index is on record?
**A.** 2.38 ± 0.05

**Q.** For SNIPRGSVIQTHIAESA [MCD1], which protein stability index is on record?
**A.** 2.91 ± 0.051

**Q.** With SNLEKLPKYKEKKAASA [MED7] as the sequence, how does the protein stability index read?
**A.** 2.25 ± 0.057

**Q.** With SNLSPDLKFKRHKNKHI [DSN1] as the sequence, how does the protein stability index read?
**A.** 2.17 ± 0.13

**Q.** With SNLTIYPIYELLMSCPR [GRR1] as the sequence, how does the protein stability index read?
**A.** 1.83 ± 0.056

**Q.** Which protein stability index does the source give for SNMILGSVELSTGDYTF [YML103C/NUP188] here?
**A.** 2.43 ± 0.037

**Q.** With SNMQKSLLPYYHLTKAV [RPN3] as the sequence, how does the protein stability index read?
**A.** 1.92 ± 0.033

**Q.** With SNNITSGLNRAISTGNW [RET1] as the sequence, how does the protein stability index read?
**A.** 3 ± 0.079

**Q.** Which protein stability index does the source give for SNQFKRSLATAVATPKA [COR1] here?
**A.** 1.3 ± 0.041

**Q.** For SNQRFKDLQWLEFARIT [SIN4], which protein stability index is on record?
**A.** 3.15 ± 0.073

**Q.** For SNRCIVFSKKEPFPHSK [CSN12], which protein stability index is on record?
**A.** 2.72 ± 0.043

**Q.** With SNSDNCPEEFAESMCQE [SNF5] as the sequence, how does the protein stability index read?
**A.** 3.01 ± 0.068

**Q.** For SNTYKEERSNNLLTPQP [MCD1], which protein stability index is on record?
**A.** 3.2 ± 0.051

**Q.** With SNVFGSNNSTTNTFGSN [YJL041W/NSP1] as the sequence, how does the protein stability index read?
**A.** 3.47 ± 0.054

**Q.** With SNYSRTMTISHLLLGFQ [YJL039C/NUP192] as the sequence, how does the protein stability index read?
**A.** 2.1 ± 0.034

**Q.** Which protein stability index does the source give for SPHYNSQKQTLIKKPLT [SSN3] here?
**A.** 2.65 ± 0.036

**Q.** For SPISDSRDELIRLAKTL [RPN10], which protein stability index is on record?
**A.** 2.24 ± 0.085

**Q.** Which protein stability index does the source give for SPIVNVLEDVYRCFAQL [RRI2] here?
**A.** 3.09 ± 0.083

**Q.** For SPMGNAYSMGAQNQGGQ [PGD1], which protein stability index is on record?
**A.** 2.71 ± 0.043

**Q.** For SPMLYKVPDISSDGQLK [BRR2], which protein stability index is on record?
**A.** 2.58 ± 0.03

**Q.** With SPNPTLQPVIPGGAASK [SNF5] as the sequence, how does the protein stability index read?
**A.** 2.88 ± 0.059

**Q.** For SPSYSPTSPSYSPTSPS [RPO21], which protein stability index is on record?
**A.** 2.1 ± 0.025

**Q.** For SPVSSVHTANFSERGSN [MED2], which protein stability index is on record?
**A.** 2.86 ± 0.044

**Q.** Which protein stability index does the source give for SPVYDVDPRIINSENDY [NUT1] here?
**A.** 2.76 ± 0.059

**Q.** With SPYNADFDGDEMNLHVP [RPO21] as the sequence, how does the protein stability index read?
**A.** 3.1 ± 0.061

**Q.** For SQCRLHELREKERISVA [PRE2], which protein stability index is on record?
**A.** 1.67 ± 0.04

**Q.** Which protein stability index does the source give for SQEREFSLLVKAEIPPE [SIN4] here?
**A.** 2.83 ± 0.061

**Q.** For SQESINQKLALVIKSGK [RPL30], which protein stability index is on record?
**A.** 2.4 ± 0.058

**Q.** With SQFNGSGNGSNPNTNTN [PGD1] as the sequence, how does the protein stability index read?
**A.** 2.89 ± 0.034

**Q.** For SQKAKLMTFNAETKSYD [YLR335W/NUP2], which protein stability index is on record?
**A.** 2.92 ± 0.053

**Q.** Which protein stability index does the source give for SQQNIVPNSSDQAELPN [SNF2] here?
**A.** 3.01 ± 0.069

**Q.** Which protein stability index does the source give for SQSSNANICLTFLESIN [SIN4] here?
**A.** 2.74 ± 0.048

**Q.** For SQTMAETYVASYVVPRL [ECM29], which protein stability index is on record?
**A.** 2 ± 0.038

**Q.** For SQTTQLAGMDVEDALDK [FAS2], which protein stability index is on record?
**A.** 3.62 ± 0.071

**Q.** Which protein stability index does the source give for SQWNDSSIDKIEDRDFL [SIR3] here?
**A.** 3.32 ± 0.15

**Q.** With SQYSTMVNIGLHNLNEY [RGR1] as the sequence, how does the protein stability index read?
**A.** 1.25 ± 0.13

**Q.** For SRDLDISSSTQCLRFLK [POP6], which protein stability index is on record?
**A.** 3.05 ± 0.061

**Q.** With SRGIVIGSGAMSPLECR [RPP1] as the sequence, how does the protein stability index read?
**A.** 2.44 ± 0.036

**Q.** Which protein stability index does the source give for SRSRSSIRSISPAGKYK [ESC2] here?
**A.** 3.14 ± 0.085

**Q.** With SRSTEKKNDMNTSAKNK [SIR4] as the sequence, how does the protein stability index read?
**A.** 2.88 ± 0.047

**Q.** For SSDGALCMDSSYIGTII [POP1], which protein stability index is on record?
**A.** 3.23 ± 0.14

**Q.** Which protein stability index does the source give for SSEILSYLSNSLDTSAS [YML103C/NUP188] here?
**A.** 2.65 ± 0.055

**Q.** Which protein stability index does the source give for SSENNQIILAYIKYNIL [SRP68] here?
**A.** 2.88 ± 0.062

**Q.** With SSFSKKTLTEEVTKSSH [YIL149C/MLP2] as the sequence, how does the protein stability index read?
**A.** 3.09 ± 0.048

**Q.** Which protein stability index does the source give for SSIQESLLSLVGHLSIL [ECM29] here?
**A.** 1.6 ± 0.025

**Q.** With SSISVMGENEKPDVTYA [RPT3] as the sequence, how does the protein stability index read?
**A.** 3.27 ± 0.083

**Q.** With SSLALVFALHKYKPTPL [SMC4] as the sequence, how does the protein stability index read?
**A.** 2.93 ± 0.055

**Q.** For SSLEELLLKDQQTAKKL [ECM29], which protein stability index is on record?
**A.** 2.95 ± 0.058

**Q.** Which protein stability index does the source give for SSLLSRLISSKMPGGFT [FAS2] here?
**A.** 2.89 ± 0.064

**Q.** Which protein stability index does the source give for SSLRNQELLNAETLCFT [RPN3] here?
**A.** 3.11 ± 0.091

**Q.** For SSNIVNENDSQAIITER [YIL149C/MLP2], which protein stability index is on record?
**A.** 2.86 ± 0.057

**Q.** With SSNLYETIIEADKSLPS [YJR042W/NUP85] as the sequence, how does the protein stability index read?
**A.** 2.96 ± 0.061

**Q.** For SSNPQSAYVKAFYQKGN [SMC1], which protein stability index is on record?
**A.** 1.95 ± 0.033

**Q.** For SSNSQQSTPQPDDMVEI [ITC1], which protein stability index is on record?
**A.** 2.87 ± 0.047

**Q.** With SSNVQQPQQQLGDMENN [RTT102] as the sequence, how does the protein stability index read?
**A.** 3.21 ± 0.17

**Q.** For SSRFIKGGSLYGLGLIY [RPN2], which protein stability index is on record?
**A.** 1.99 ± 0.06

**Q.** Which protein stability index does the source give for SSRLEFVKGISRDIKAL [YML103C/NUP188] here?
**A.** 1.62 ± 0.04

**Q.** With SSTDFSTCIVSLIRNNL [ECM29] as the sequence, how does the protein stability index read?
**A.** 2.88 ± 0.054

**Q.** Which protein stability index does the source give for SSTITGDVVLAAAYSHE [RPL5] here?
**A.** 2.31 ± 0.058

**Q.** Which protein stability index does the source give for SSTKPPGSVNSAAKYKD [NUT1] here?
**A.** 2.93 ± 0.065

**Q.** For SSVNEDTFLPPPPPPPS [PRP8], which protein stability index is on record?
**A.** 2.46 ± 0.037

**Q.** With STAIKSLVALGIDPQDL [CDC53] as the sequence, how does the protein stability index read?
**A.** 2.45 ± 0.049

**Q.** With STATRNVTMIDDLIHFT [COR1] as the sequence, how does the protein stability index read?
**A.** 2.89 ± 0.085

**Q.** For STGDYTFTIQLLKLTKV [YML103C/NUP188], which protein stability index is on record?
**A.** 2.51 ± 0.11

**Q.** For STIPTRENGKGGQIAHI [ROX3], which protein stability index is on record?
**A.** 2.97 ± 0.19

**Q.** With STKSNKTRNPLTHSTPK [RPL8A] as the sequence, how does the protein stability index read?
**A.** 1.88 ± 0.15

**Q.** Which protein stability index does the source give for STLQHFQETLDSTVVYP [MED8] here?
**A.** 3.17 ± 0.041

**Q.** Which protein stability index does the source give for STSFSFNAPATGNGTTT [YOR098C/NUP1] here?
**A.** 3.005 ± 0.028

**Q.** With STSLGIPDFRSSEGFYS [SIR2] as the sequence, how does the protein stability index read?
**A.** 3.36 ± 0.14

**Q.** Which protein stability index does the source give for STVKKKDIVNISIPKTC [REC8] here?
**A.** 2.62 ± 0.054

**Q.** With SVALHRHSNALVDILPP [RPT3] as the sequence, how does the protein stability index read?
**A.** 1.94 ± 0.041

**Q.** Which protein stability index does the source give for SVANTPSEIPDAHKAEQ [SWI3] here?
**A.** 3.03 ± 0.061

**Q.** For SVDDVLSALDHIGHSAL [DPB4], which protein stability index is on record?
**A.** 3.46 ± 0.069

**Q.** For SVDESARIKDAFITQLE [YJL039C/NUP192], which protein stability index is on record?
**A.** 2.87 ± 0.11

**Q.** For SVDICNNSKSRYPMNLL [ECM29], which protein stability index is on record?
**A.** 1.31 ± 0.079

**Q.** Which protein stability index does the source give for SVEWMKVSPSMCGVIVK [SIN4] here?
**A.** 1.54 ± 0.063
